Fewer inactive variants are shown than the library holds.

B1: TPR 5TU (parent)
chain: GGAUCUUCUCGAUCUAACAAAAAAGACAAAUCUGCCACAAAGCUUGAGAGCAUCUUCGGAUGCAGAGGCGGCAGCCUUCGGUGGCGCGAUAGCGCCAACGUUCUCAACUAUGACACGCAAAACGCGUGCUCCGUUGAAUGGAGUUUAUCAUG

The variants in this data set derive from B1. In words: polymerase ribozyme fitness, log enrichment relative to wild type (log ratio); higher = more active; in vitro selection for triplet polymerase activity. In short, it runs like this: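 The heterodimeric triplet polymerase ribozyme's subunits were each mutagenized into PCR-built libraries and transcribed. Every library was selected once, in triplicate, by annealing with a biotinylated primer, the partner subunit and triplets, incubating frozen at −7 °C, gel-excising extended constructs, capturing on streptavidin beads and running RT-PCR. Input and output libraries were Illumina-sequenced, with genotypes kept only at ≥10 input reads and ≥1 read per output. Fitness, from inverse-variance-weighted replicate averages, is the base-2 logarithm of genotype enrichment over wild-type enrichment.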
Take G11A A20C A21U A52G U55C G94C C116U: the “polymerase ribozyme fitness (log ratio)” value was -4.05.

Turning to A3C C8U C27U G68A C87U A91C C93G, the “polymerase ribozyme fitness (log ratio)” value is ≤ -4.2.

Turning to A17C A22C A73C A91C C95G U101A G143A, the “polymerase ribozyme fitness (log ratio)” value is ≤ -4.2.

Regarding A20G G71A C96A, the “polymerase ribozyme fitness (log ratio)” value was ≤ -4.2.

G25U U31A A64C U90A G124A: the “polymerase ribozyme fitness (log ratio)” value is ≤ -4.2.

For the variant G11C C32G C54U C57U C79G C87G A110G, the “polymerase ribozyme fitness (log ratio)” value is ≤ -4.2.

In the case of U82G C95U U102G, the “polymerase ribozyme fitness (log ratio)” value is -3.59.

Consider C27U U145G, for which the “polymerase ribozyme fitness (log ratio)” value is -1.39.

Take A30C G46C A73G G80C G84A A91G: the “polymerase ribozyme fitness (log ratio)” value is ≤ -4.2.

G84A C103U: the “polymerase ribozyme fitness (log ratio)” value is -2.51.

With G34U G58U C87A A98C G143C, the “polymerase ribozyme fitness (log ratio)” value was ≤ -4.2.

In the case of U15A A73U C76G C118A A138C G141C, the “polymerase ribozyme fitness (log ratio)” value was ≤ -4.2.

Consider C5U C18U C85A, for which the “polymerase ribozyme fitness (log ratio)” value was -0.0024.

Take U33A A73U C85U U127G: the “polymerase ribozyme fitness (log ratio)” value was -2.45.

Consider A21C C51U G59C G140A A142U, for which the “polymerase ribozyme fitness (log ratio)” value is ≤ -4.2.

For the variant A22U U45A C57U G58A G59U C87A, the “polymerase ribozyme fitness (log ratio)” value was ≤ -4.2.

Regarding C5G U139A, the “polymerase ribozyme fitness (log ratio)” value was -3.99.

In the case of U45A A52C A73C A91U U101C, the “polymerase ribozyme fitness (log ratio)” value was ≤ -4.2.

Turning to C8A U9G A12C A29U A30U G88U C93A A107G, the “polymerase ribozyme fitness (log ratio)” value was ≤ -4.2.

In the case of C18U A21G C99G A147U, the “polymerase ribozyme fitness (log ratio)” value is -0.0193.

Turning to C14G A17C, the “polymerase ribozyme fitness (log ratio)” value was -2.89.

On to U55A C118G A147U, for which the “polymerase ribozyme fitness (log ratio)” value was 0.0992.

With A16U A22U A23G A60U C95U C108U A119G C123U, the “polymerase ribozyme fitness (log ratio)” value was ≤ -4.2.

Regarding C38A C69G C93U U139A, the “polymerase ribozyme fitness (log ratio)” value was ≤ -4.2.

Take A19G U77A C96U A113G: the “polymerase ribozyme fitness (log ratio)” value was ≤ -4.2.

Consider G62A G65A A66C U77C U135C U145G, for which the “polymerase ribozyme fitness (log ratio)” value is ≤ -4.2.

Consider G50A G65C C76G G92C G100A C125G, for which the “polymerase ribozyme fitness (log ratio)” value is ≤ -4.2.

With A20G U55A G59U C76U C96A, the “polymerase ribozyme fitness (log ratio)” value was -1.18.

For the variant G11U G58C G84U A97U, the “polymerase ribozyme fitness (log ratio)” value is -2.86.

For the variant U9C A119U, the “polymerase ribozyme fitness (log ratio)” value was ≤ -4.2.

On to G46C C118G, for which the “polymerase ribozyme fitness (log ratio)” value is -1.24.

A3U U15A U82C G86A A91G: the “polymerase ribozyme fitness (log ratio)” value is -3.4.

In the case of A16U G84U C129A, the “polymerase ribozyme fitness (log ratio)” value is ≤ -4.2.

Regarding A21U C57G C93A, the “polymerase ribozyme fitness (log ratio)” value is -2.34.

On to A106C A107G, for which the “polymerase ribozyme fitness (log ratio)” value is -4.18.

A23G C27U C93G C103G A150G: the “polymerase ribozyme fitness (log ratio)” value is ≤ -4.2.

As to U9G C75U A150G, the “polymerase ribozyme fitness (log ratio)” value is ≤ -4.2.

On to C10U U90G C116G, for which the “polymerase ribozyme fitness (log ratio)” value is -3.83.

On to A22U G25U C35U C76G G126U U135A, for which the “polymerase ribozyme fitness (log ratio)” value was ≤ -4.2.

For A73G G86A A150G, the “polymerase ribozyme fitness (log ratio)” value is ≤ -4.2.

As to C18U C51A A52G A122C, the “polymerase ribozyme fitness (log ratio)” value is -1.98.

A21C U53A C54G C76G C103G G133U: the “polymerase ribozyme fitness (log ratio)” value is ≤ -4.2.

In the case of A12U C36U U61G G67A U82G A106G A138U, the “polymerase ribozyme fitness (log ratio)” value was -4.08.

For C18U G42A C85U C103U, the “polymerase ribozyme fitness (log ratio)” value was -4.11.

As to U44A U82C C85A, the “polymerase ribozyme fitness (log ratio)” value is ≤ -4.2.

Regarding A41U A52C C76U, the “polymerase ribozyme fitness (log ratio)” value is -3.25.

Turning to U55A G94A, the “polymerase ribozyme fitness (log ratio)” value was -0.894.

In the case of A60G U61G C93U, the “polymerase ribozyme fitness (log ratio)” value is -2.26.

Regarding C51U G67A G83U G94A A98C C99G U109C A120U U145G, the “polymerase ribozyme fitness (log ratio)” value is ≤ -4.2.

Turning to A41U G48U C57G C85U A120U, the “polymerase ribozyme fitness (log ratio)” value is -3.4.

C14U C32U U61C A91U: the “polymerase ribozyme fitness (log ratio)” value is ≤ -4.2.

Consider C14U G92A C116G, for which the “polymerase ribozyme fitness (log ratio)” value is -3.86.

As for C32G C72U, the “polymerase ribozyme fitness (log ratio)” value is -4.2.

As for A19U A21C C96U C129A, the “polymerase ribozyme fitness (log ratio)” value was -4.13.

For A30C U55A C57G C93U C105G G124U, the “polymerase ribozyme fitness (log ratio)” value was ≤ -4.2.

In the case of A16U A19U G80A U144G, the “polymerase ribozyme fitness (log ratio)” value is -2.53.

Consider A29C C76A A91U A110G, for which the “polymerase ribozyme fitness (log ratio)” value is ≤ -4.2.

Consider A37U G65A A66U U77G G84A, for which the “polymerase ribozyme fitness (log ratio)” value is ≤ -4.2.

In the case of A24G U56A A121C G133C, the “polymerase ribozyme fitness (log ratio)” value was ≤ -4.2.

On to C79G A122U, for which the “polymerase ribozyme fitness (log ratio)” value was -3.58.

As for C36A G143U, the “polymerase ribozyme fitness (log ratio)” value is -4.12.

With C96A A107U, the “polymerase ribozyme fitness (log ratio)” value was -2.87.

Take C10A A66C C85U A98G A121C: the “polymerase ribozyme fitness (log ratio)” value is ≤ -4.2.

With A22G G25U C38A A52G C96U, the “polymerase ribozyme fitness (log ratio)” value is -2.43.

As to U61G C72U, the “polymerase ribozyme fitness (log ratio)” value is -1.45.

For G84A G126U, the “polymerase ribozyme fitness (log ratio)” value was -0.0664.

For A52U G140C, the “polymerase ribozyme fitness (log ratio)” value was ≤ -4.2.

A22U U55A U56A A97U: the “polymerase ribozyme fitness (log ratio)” value was -0.631.

With C54G A64G G94A G100U C105A, the “polymerase ribozyme fitness (log ratio)” value was ≤ -4.2.

In the case of A16U A22U A37G C72U, the “polymerase ribozyme fitness (log ratio)” value is -3.87.

A3U A41G C85U G126U U144A: the “polymerase ribozyme fitness (log ratio)” value was -1.79.

As to A21G A37G C95U A115G G143C, the “polymerase ribozyme fitness (log ratio)” value is -3.82.

For A66G C85A, the “polymerase ribozyme fitness (log ratio)” value is -3.39.

As for A17C C51A C93U A115U, the “polymerase ribozyme fitness (log ratio)” value is -2.93.

Take G25A C85A C95U: the “polymerase ribozyme fitness (log ratio)” value is -2.49.

As to G50A C96U C125G, the “polymerase ribozyme fitness (log ratio)” value is -2.14.

With A22C A37U G48C C87U G124A U134C, the “polymerase ribozyme fitness (log ratio)” value is -4.18.

As to G50U G58A G84U C105U G133A G141C, the “polymerase ribozyme fitness (log ratio)” value is ≤ -4.2.

Take C54A C57G A60U C87U C95U G136A: the “polymerase ribozyme fitness (log ratio)” value is -4.11.

As for C38A G84A, the “polymerase ribozyme fitness (log ratio)” value is -1.23.

With G25U C43U U53A C87A A91C G140A, the “polymerase ribozyme fitness (log ratio)” value was ≤ -4.2.

In the case of U31G G48U G58A C79A C85U U101G, the “polymerase ribozyme fitness (log ratio)” value is ≤ -4.2.

With U55A A60G U102A U148A, the “polymerase ribozyme fitness (log ratio)” value is -3.91.

Regarding A16C A30U G68C C79G, the “polymerase ribozyme fitness (log ratio)” value is ≤ -4.2.

These data come from the RNAGym collection of RNA variant scans (doi:10.1073/pnas.2313332121).
